These results are taken from publication PMC7442622, “A functionally neutral single chain antibody to measure beta‐1 integrin uptake and recycling” (Traffic (Copenhagen, Denmark), 2020).

The test has as its target T1, β1 integrin (Homo sapiens, UniProt P05556).
T1 construct: β1 integrin (integrin beta-1), endogenous on the surface of H1975 and hTERT-RPE1 cells; On cells β1 integrin stands in αβ heterodimers; also called beta‐1 integrin; endogenous β1 integrin; source: endogenous, on H1975 cells; endogenous, on hTERT‐RPE1 cells
Briefly: ELISA; cell-based ELISA binding isotherm on H1975 cells seeded on gelatin- and fibronectin-coated 96-well plates; antibody dilutions in PBS4+ (1 mM MgCl2, 1 mM CaCl2, 5 mM glucose, 1% BSA), 30 minutes at 4°C; KD as the concentration at half-maximal binding; n = 4. The settings on record: one partner purified.

T1 sequence (P05556 21-798): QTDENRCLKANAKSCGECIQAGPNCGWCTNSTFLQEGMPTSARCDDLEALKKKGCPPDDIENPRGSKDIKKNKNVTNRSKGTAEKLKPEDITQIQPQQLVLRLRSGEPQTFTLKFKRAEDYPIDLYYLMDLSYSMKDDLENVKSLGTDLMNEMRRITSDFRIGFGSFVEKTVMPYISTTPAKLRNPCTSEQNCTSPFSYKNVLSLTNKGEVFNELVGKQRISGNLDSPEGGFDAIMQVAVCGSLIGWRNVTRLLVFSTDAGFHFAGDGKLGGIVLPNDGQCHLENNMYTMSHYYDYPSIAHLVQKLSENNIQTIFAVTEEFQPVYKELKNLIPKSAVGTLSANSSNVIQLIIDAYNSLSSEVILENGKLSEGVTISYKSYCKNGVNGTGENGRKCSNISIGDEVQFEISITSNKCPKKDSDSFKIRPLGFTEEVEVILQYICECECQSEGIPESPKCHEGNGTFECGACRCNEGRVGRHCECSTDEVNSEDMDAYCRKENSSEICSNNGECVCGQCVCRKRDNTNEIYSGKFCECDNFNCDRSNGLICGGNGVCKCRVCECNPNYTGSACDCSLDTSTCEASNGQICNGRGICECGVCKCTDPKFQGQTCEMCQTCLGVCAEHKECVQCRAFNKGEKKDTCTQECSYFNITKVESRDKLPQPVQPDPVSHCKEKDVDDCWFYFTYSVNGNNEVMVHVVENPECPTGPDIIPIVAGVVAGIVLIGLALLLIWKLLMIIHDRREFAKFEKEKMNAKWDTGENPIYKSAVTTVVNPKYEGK

B1: MBP‐scFv^K20 (scFv, V domains shown)
VH: QVQLQESGTELVRPGASVKLSCKASGYTFTDYYISWVKQRPGQGLEWIARIYPGSGNTFYNEKFKGKATLTAETSSNTAYMQLSSLTSEDSAVYFCAIYYGSGDYWGQGTTVTVSS
VL: DIQLTQSPSSLSASLGGKVTITCKASQDINKYIAWYQHEPGKGPRLLIRYTSKLESGIPSRFSGSGSGRDYSFSISNLEPEDIATYYCLQYYNLWTFGGGTKLEIK
notes: VH of mouse mAb K20; flexible linker, 3x repeat of GGGGS; VL of mouse mAb K20; 71 kDa fusion; a TEV site lies between MBP and the scFv; monovalent; also called MBP‐fused scFv^K20; anti‐β1 integrin scFv^K20; source: High Five insect cells, baculovirus, secreted; purified (IMAC, SEC peak 2); also as culture media containing secreted scFv^K20; not shown: His6, N-terminal, kept; MBP, N-terminal, …
Take B1: the affinity, expressed as Kd, was 6.54 ± 1.34 nM.

B2: mouse monoclonal anti‐β1 integrin antibody mAb K20 (antibody, V domains shown)
VH: QVQLQESGTELVRPGASVKLSCKASGYTFTDYYISWVKQRPGQGLEWIARIYPGSGNTFYNEKFKGKATLTAETSSNTAYMQLSSLTSEDSAVYFCAIYYGSGDYWGQGTTVTVSS
VL: DIQLTQSPSSLSASLGGKVTITCKASQDINKYIAWYQHEPGKGPRLLIRYTSKLESGIPSRFSGSGSGRDYSFSISNLEPEDIATYYCLQYYNLWTFGGGTKLEIK
notes: VH of mAb K20; constant region of the heavy chain of a mouse IgG; VL of mAb K20; constant region of the light chain of a mouse antibody; Bivalent IgG; also called mAb K20 IgG; parent mAb K20; source: bought: Beckman Coulter; copies: 2 + 2
In turn, B2 displayed a Kd of 1.2 ± 0.14 nM.

Usually Kd stands for the equilibrium constant for the complex coming apart. A low value points to a tighter complex.
